For one substance, Kd, percent Pt-Dd binding relative to WW (2-3-4)-GFP and decrease in affinity relative to WW (2-3-4)-GFP results are on record in paper PMC3459938.

As a reminder, the Kd is a measure of binding affinity in units of concentration. A high value points to a looser complex.

Holding throughout (experiment): ELISA
For one experiment, the target named is WW3-GFP (human) (UniProt P46934).
Experiment [1] concerns the target WW2-GFP (construct 7) (human) (UniProt P46934).
For another experiment, the target named is WW_(2-3-4)-GFP (human) (UniProt P46934).
In experiment [2] the target is WW4-GFP (construct 9) (human) (UniProt P46934).
Experiment [3] addresses construct 2 (WW2-WW3-GFP, natural linker) (human) (UniProt P46934).
For experiment [4], the target named is construct 5 (two WW domains joined by QGLQNEE, GFP fusion).
Experiment [5] deals with construct 4 (two WW domains joined by QGLQNEE, GFP fusion).

Consider “Adenovirus serotype 3 Penton-Dodecahedron (from UniProt Q2Y0H9 1-544; P04501 1-319) (complex)”, for which the figures for the Kd with WW3-GFP (human) and with WW_(2-3-4)-GFP (human) were 0.0824 nM and 0.0525 nM, respectively. The percent Pt-Dd binding relative to WW (2-3-4)-GFP with WW3-GFP (human) was 80%; in experiment [1], 13%; in experiment [2], 40%. In addition, the decrease in affinity relative to WW (2-3-4)-GFP in experiment [3], in experiment [4] and in experiment [5] was 20% in each case.
